Patent publication US11046988B2, “Process for the modification of a glycoprotein using a β-(1,4)-N-acetylgalactosaminyl transferase or a mutant thereof” (Synaffix B.V., priority 2014, dated 2021)

B1: TnGalNAcT: truncated Trichoplusia ni β-(1,4)-GalNAcT, amino acids 33-421 of SEQ ID NO: 4 (SEQ ID NO: 8) (protein)
chain: SPLRTYLYTPLYNATQPTLRNVERLAANWPKKIPSNYIEDSEEYSIKNISLSNHTTRASVVHPPSSITETASKLDKNMTIQDGAFAMISPTPLLITKLMDSIKSYVTTEDGVKKAEAVVTLPLCDSMPPDLGPITLNKTELELEWVEKKFPEVEWGGRYSPPNCTARHRVAIIVPYRDRQQHLAIFLNHMHPFLMKQQIEYGIFIVEQEGNKDFNRAKLMNVGFVESQKLVAEGWQCFVFHDIDLLPLDTRNLYSCPRQPRHMSASIDKLHFKLPYEDIFGGVSAMTLEQFTRVNGFSNKYWGWGGEDDDMSYRLKKINYHIARYKMSIARYAMLDHKKSTPNPKRYQLLSQTSKTFQKDGLSTLEYELVQVVQYHLYTHILVNIDERS
modifications: TnGalNAcT(33-421)

Legend:
Type in all cases: biochemical
[1] = tested on: GlcNAc-Man5-GlcNAc-GlcNAc(Fuc)-substituted trastuzumab (formula 26); assay: Glycosyltransfer of GalNAz to GlcNAc-Man5-GlcNAc-GlcNAc(Fuc)-substituted trastuzumab, MS analysis; conditions: UDP-GalNAz 0.5 mM, CeGalNAcT 0.1 mg/mL, 10 mM MnCl2, pH 8.0, 16 hours, 30° C.
Description: Trastuzumab transiently expressed in the presence of swainsonine as described in Example 18 (10 mg/mL) was incubated with neuraminidase (0.5 mU/mg IgG) from Vibrio cholerae (commercially available from Sigma-aldrich) in 100 mM sodium acetate pH 6.0 and 2 mM CaCl2 for 16 hrs, which led to complete removal of the sialic acid (two major heavy chain products of 50712 and 50874 Da which correspond to approximately 20 and 70% of the total heavy chain products). When the same reaction was performed in the presence of β(1,4)-galactosidase (3 mU/mg IgG) from Streptococcus pneumoniae (commercially available from Calbiochem), a single major heavy chain product was observed corresponding to trastuzumab with a GlcNAc-Man5-GlcNAc-GlcNAc(Fuc)-substituted heavy chain (c=d=0, 50712 Da, ±90% of total heavy chain product, and minor heavy chain products between 50700 and 50900 Da).
A solution of 50 μg (modified) IgG, 1 M Tris-HCl pH 8.0, 1 mM EDTA and 30 mM DTT with a total volume of approximately 70 μL was incubated for 20 minutes at 37° C. to reduce the disulfide bridges allowing to analyze both light and heavy chain. If present, azide-functionalities are reduced to amines under these conditions. […] The reduced IgG was analyzed by electrospray ionization time-of-flight (ESI-TOF) on a JEOL AccuTOF. […]

[2] = tested on: GlcNAc2-Man3-GlcNAc-GlcNAc(Fuc)-substituted trastuzumab (formula 27); assay: Glycosyltransfer of GalNAz to galactosidase-trimmed trastuzumab, MS analysis; conditions: UDP-GalNAz 0.5 mM, CeGalNAcT 0.1 mg/mL, 10 mM MnCl2, pH 8.0, 16 hours, 22° C.
Description: Trastuzumab (10 mg/mL) in 50 mM sodium phosphate pH 6.0 and β(1,4)-galactosidase (3 mU/mg IgG) from Streptococcus pneumoniae (commercially available from Calbiochem) was stirred for 16 hrs at 37° C. prior to analysis by MS. A single major heavy chain product was observed corresponding to trastuzumab with a GlcNAc2-Man3-GlcNAc-GlcNAc(Fuc)-substituted heavy chain (c=d=0, 50592 Da).
(§1) A solution of 50 μg (modified) IgG, 1 M Tris-HCl pH 8.0, 1 mM EDTA and 30 mM DTT with a total volume of approximately 70 μL was incubated for 20 minutes at 37° C. to reduce the disulfide bridges allowing to analyze both light and heavy chain. If present, azide-functionalities are reduced to amines under these conditions. Reduced samples were washed trice with milliQ using an Amicon Ultra-0.5, Ultracel-10 Membrane (Millipore) and concentrated to 10 μM (modified) IgG. The reduced IgG was analyzed by electrospray ionization time-of-flight (ESI-TOF) on a JEOL AccuTOF. Deconvoluted spectra were obtained using Magtran software.
Trastuzumab obtained after trimming with galactosidase (as in Formula 27, preparation described in Example 24) was subjected to the glycosyltransfer protocol with UDP-GalNAz and GalNAcT.

[3] = tested on: trimmed trastuzumab (core GlcNAc(Fuc) / core GlcNAc, glycan of formula (1)); assay: Glycosyltransfer of sugar derivative to trimmed (Endo S deglycosylated) trastuzumab, MS analysis; conditions: for major heavy chain product, F2-GalNAz transfer to core GlcNAc(Fuc)-substituted trastuzumab: UDP-F2-GalNAz 0.4 mM; for conversion of the starting material into two products: UDP-GalNProSH 2 mM
Description: Trimming of IgG glycans was performed using Endo S from Streptococcus pyogenes (commercially available from Genovis, Lund, Sweden). The IgG (10 mg/mL) was incubated with Endo S (40 U/mL) in 25 mM Tris pH 8.0 for approximately 16 hours at 37° C. The deglycosylated IgG was concentrated and washed with 10 mM MnCl2 and 25 mM Tris-HCl pH 8.0 using an Amicon Ultra-0.5, Ultracel-10 Membrane (Millipore).
Trastuzumab was subjected to the trimming protocol above. Analysis of the trimmed antibody was performed on a JEOL AccuToF equipped with an Agilent 1100 HPLC. Samples (2 μL) were reduced with DTT (2 μL) during 10 min and subsequently diluted with H2O (40 μL) prior to injection. […] The two peaks of heavy chain belonged to one major product (49496 Da, 90% of total heavy chain), resulting from core GlcNAc(Fuc) substituted trastuzumab, and a minor product (49351 Da, ±10% of total heavy chain), resulting from core GlcNac substituted trastuzumab. This is an example of a glycoprotein comprising a glycan according to formula (1).
as §1
Enzymatic introduction of galactose derivative (e.g. azido-containing sugar) onto IgG was effected with a GalNAc-transferase or a mutant thereof. The deglycosylated IgG (prepared as described above, 10 mg/mL) was incubated with a modified UDP-galactose derivative (e.g. an azido-modified sugar-UDP derivative) (0.4 mM) and GalNAcT (1 mg/mL) in 10 mM MnCl2 and 25 mM Tris-HCl pH 8.0 for 16 hours at 30° C. The functionalized IgG (e.g. azido-functionalized IgG) was incubated with protein A agarose (40 μL per mg IgG) for 2 hours at 4° C. The protein A agarose was washed three times with PBS and the IgG was eluted with 100 mM glycine-HCl pH 2.7. The eluted IgG was neutralized with 1 M Tris-HCl pH 8.0 and concentrated and washed with PBS using an Amicon Ultra-0.5, Ultracel-10 Membrane (Millipore) to a concentration of 15-20 mg/mL.
Enzymatic introduction of galactose derivative (e.g. thio-containing sugar 21) onto IgG was effected with a GalNAc-transferase or a mutant thereof. The deglycosylated IgG (prepared as described above, 10 mg/mL) was incubated with a modified UDP-galactose derivative (e.g. an thio-modified sugar-UDP derivative) (2 mM) and GalNAcT (0.2 mg/mL) in 10 mM MnCl2 and 50 mM Tris-HCl pH 6.0 for 16 hours at 30° C. The functionalized IgG (e.g. thio-functionalized trastuzumab) was incubated with protein A agarose (40 μL per mg IgG) for 1 hours at rt. The protein A agarose was washed three times with TBS (pH 6.0) and the IgG was eluted with 100 mM glycine-HCl pH 2.5. The eluted IgG was neutralized with 1 M Tris-HCl pH 7.0 and concentrated and washed with 50 mM Tris-HCl pH 6.0 using an Amicon Ultra-0.5, Ultracel-10 Membrane (Millipore) to a concentration of 15-20 mg/mL.

[4] = GalNAcT 1 mg/mL, 10 mM MnCl2, pH 8.0, 16 hours, 30° C.
[5] = UDP-GalNAz 0.4 mM, GalNAcT 1 mg/mL, 10 mM MnCl2, pH 8.0, 16 hours, 30° C.

Molecule	conversion into GalNAz-GlcNAc-Man5-GlcNAc-GlcNAc(Fuc)-substituted trastuzumab [1]	major heavy chain product (GalNAz-GlcNAc-Man5-GlcNAc-GlcNAc(Fuc)-substituted) [1]	conversion into (GalNAz-GlcNAc)2-Man3-GlcNAc-GlcNAc(Fuc)-substituted trastuzumab [2]	major heavy chain product ((GalNAz-GlcNAc)2-Man3-GlcNAc-GlcNAc(Fuc)-substituted) [2]	major heavy chain product, F2-GalNAz transfer to core GlcNAc(Fuc)-substituted trastuzumab [3, 4]	major product, F2-GalNBAz transfer to core GlcNAc(Fuc) substituted trastuzumab heavy chain ([3]; UDP-F2GalNBAz 7 mM, CeGalNAcT 2 mg/mL, 10 mM MnCl2, pH 8.0, 30° C. overnight)	major product, GalNAz transfer to core GlcNAc(Fuc) substituted trastuzumab [3, 5]	minor product, GalNAz transfer to core GlcNAc substituted trastuzumab [3, 5]	conversion of the starting material into two products ([3]; CeGalNAcT 1 mg/mL, overnight)	conversion, GalNBzN3 transfer to core GlcNAc(Fuc) substituted trastuzumab ([3]; UDP-GalNBzN3 4 mM, TnGalNAcT 0.7 mg/mL, overnight)	conversion of the starting material into two products ([3]; TnGalNAcT 0.2 mg/mL, overnight)	conversion, GalNPyrN3 transfer to core GlcNAc(Fuc) substituted trastuzumab ([3]; UDP-GalNPyrN3 4 mM, TnGalNAcT 0.5 mg/mL, overnight)
CeGalNAcT: truncated Caenorhabditis elegans β-(1,4)-GalNAcT, amino acids 30-383 of SEQ ID NO: 2 (SEQ ID NO: 6)	complete conversion	~90 % of the total heavy chain products	complete conversion	~90 % of the total heavy chain products	approximately 90 % of total heavy chain	approximately 90 % of total heavy chain	90 % of total heavy chain	~10 % of total heavy chain	Full conversion	–	–	–
B1	–	–	–	–	approximately 90 % of total heavy chain	–	–	–	–	About 70%	Full conversion	About 50%
